Data set [1] can be described thus: folding stability dG unfold from trypsin proteolysis; higher = more stable. An outline of the steps: (§1)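 Designed mini-proteins (under 80 residues, no cysteine) in a PA-tagged cDNA display construct were digested with trypsin and chymotrypsin. Each protease was used at 11 concentrations (threefold dilutions) plus a no-protease condition, followed by sequencing. K50 was inferred by Bayesian fitting of sequencing counts, and unfolding free energy was derived against a sequence-predicted unfolded-state K50 and a shared folded-state K50, per protease or combined. Only designs with AlphaFold2 dimer inter-PAE above 15 were kept.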

A short description of data set [2]: folding stability dG unfold from chymotrypsin proteolysis; higher = more stable. An outline of the steps:
as §1

A short description of data set [3]: folding stability dG unfold (combined trypsin and chymotrypsin); higher = more stable. An outline of the steps: as §1

± gives the half width of the 95% confidence interval.

Turning to “SAGGSAGGSAGSLPIPISSESVSSLPESPLSVVTVKLPDGKTVVITVDLNSSSSSVTPLPSAGGSAGGSAGG [r17_369_JUSTAS]”, the “folding stability dG unfold” value in data set [1] turned out to be 1.61 ± 0.051 kcal/mol; in data set [2], 1.12 ± 0.032 kcal/mol; in data set [3], 1.37 ± 0.051 kcal/mol.
Take “SAGGSAGGSAGSLTFQLPNGTEITVTEITLEIKLPNGDVILIKITVDPEPPVTTEVTFVNSAGGSAGGSAGG [r11_804_JUSTAS]”: the “folding stability dG unfold” value was found to be 1.8 ± 0.066 kcal/mol in data set [1], 1.37 ± 0.09 kcal/mol in data set [2] and 1.64 ± 0.13 kcal/mol in data set [3].
“SAGGSAGGSAGSMAVDLKITISEDPSKPTYTGTVHLPDGTVVTVTSTGSPEELRARLEALLSAGGSAGGSAG [r3_143_JUSTAS]”: the entries for the “folding stability dG unfold” value in data set [1], in data set [2] and in data set [3] were 0.0769 ± 0.076 kcal/mol, 1.94 ± 0.044 kcal/mol and 1.68 ± 0.088 kcal/mol, respectively.
The like results for “SAGGSAGGSAGSMTITITETKKLPNGKTVVTTTKVEVRVFPNGGAIERKTLEVVTEELLGSAGGSAGGSAGG [r17_129_JUSTAS]” were, in that order, 1.34 ± 0.041 kcal/mol, 1.79 ± 0.053 kcal/mol and 1.58 ± 0.098 kcal/mol.
With “SAGGSAGGSAGSMTLLATETFPETGKTVKYYKEGDTIYRVDYSDPKNPVVTELSPSDPLKSAGGSAGGSAGG [r17_145_JUSTAS]”, the “folding stability dG unfold” value turned out to be 1.68 ± 0.09 kcal/mol in data set [1], 2.29 ± 0.054 kcal/mol in data set [2] and 2.12 ± 0.086 kcal/mol in data set [3].
The like results for “SAGGSAGGSAGSMTTTTTIVKLPNGTLVLETPTVTTTTFPETGTTTTTTTVTVTVLPGLSSAGGSAGGSAGG [r11_1008_JUSTAS]” were, in that order, 2.47 ± 0.076 kcal/mol, 1.3 ± 0.029 kcal/mol and 1.89 ± 0.065 kcal/mol.
Taken in the same sequence, the figures for “SAGGSAGGSAGSPIDTLVEEKTFTLPNGEKVIEATLKRPPGEPVHVVTIETKDSVIVELESAGGSAGGSAGG [r17_316_JUSTAS]” were 0.513 ± 0.019 kcal/mol, 0.304 ± 0.086 kcal/mol and 0.462 ± 0.049 kcal/mol.
The like results for “SAGGSAGGSAGSPKGKPPKPTIEYEPITFEIPNPDGQGFELEISIIRMPGNGQEFIGISFSAGGSAGGSAGG [r11_1024_TrROS]” were, in that order, 0.611 ± 0.086 kcal/mol, 1.86 ± 0.069 kcal/mol and 1.58 ± 0.17 kcal/mol.
With “SAGGSAGGSAGSPLAQAVIDELKAQGYTVEAVTVTQPPGNAPVVVVTVKKPDGTRVVIDLSAGGSAGGSAGG [r11_780_JUSTAS]”, the “folding stability dG unfold” value in data set [1] came out at 2.74 ± 0.12 kcal/mol; in data set [2] it was 2.182 ± 0.016 kcal/mol; in data set [3], 2.39 ± 0.07 kcal/mol.
With “SAGGSAGGSAGSPMSAEEVEERLREELRRELGPDYTVTVTVTEVLPEGVYVVSVTVTGPASAGGSAGGSAGG [r11_153_JUSTAS]”, the “folding stability dG unfold” value is 2.49 ± 0.14 kcal/mol in data set [1], 1.96 ± 0.028 kcal/mol in data set [2] and 2.21 ± 0.099 kcal/mol in data set [3].
The like results for “SAGGSAGGSAGSPVSNPEGGTITNTETLPDGKTIVNTQTIDPSKPKTTTSTTVLDPNGNAVSAGGSAGGSAG [r3_433_JUSTAS]” were, in that order, 0.894 ± 0.053 kcal/mol, 1.55 ± 0.045 kcal/mol and 1.27 ± 0.13 kcal/mol.
As to “SAGGSAGGSAGSSLPVLETREEGDLVYLLFPETNLLLVVRRGPGEVEVPSAVRVPPDVPLSAGGSAGGSAGG [r17_30_JUSTAS]”, the “folding stability dG unfold” value in data set [1] came to 0.805 ± 0.022 kcal/mol; in data set [2], 1.03 ± 0.047 kcal/mol; in data set [3], 0.958 ± 0.063 kcal/mol.
Take “SAGGSAGGSAGSSMTSTVTEVSTLSNGGTVVTTTTTSYYPSTGTTTTSTTTTTFTDGKAVSAGGSAGGSAGG [r11_337_JUSTAS]”: the “folding stability dG unfold” value amounted to 1.08 ± 0.057 kcal/mol in data set [1], 0.932 ± 0.027 kcal/mol in data set [2] and 1.05 ± 0.03 kcal/mol in data set [3].
The like results for “SAGGSAGGSAGSSPSDLKVTLKVTLPDGTVLTVVMPAHATLDDFPADRPVTVTTLETKLESAGGSAGGSAGG [r11_997_JUSTAS]” were, in that order, 1.66 ± 0.084 kcal/mol, 0.656 ± 0.043 kcal/mol and 1.29 ± 0.12 kcal/mol.
The like results for “SAGGSAGGSAGSSTSTSSDGVLTTYFPDGTVTSTETKPDPSTGTVLAVSTTTTPLPPDTLSAGGSAGGSAGG [r11_497_JUSTAS]” were, in that order, 2.01 ± 0.044 kcal/mol, 0.572 ± 0.035 kcal/mol and 1.39 ± 0.032 kcal/mol.
Taken in the same sequence, the figures for “SAGGSAGGSAGSSVKTYTGKGKKITITKLDNGTYIVTTPDKTSTYPPSVSEEEVIKKALESAGGSAGGSAGG [r17_272_JUSTAS]” were 0.506 ± 0.093 kcal/mol, -0.0797 ± 0.44 kcal/mol and 0.282 ± 0.17 kcal/mol.
For “SAGGSAGGSAGSTALVETREFEDGTVVERVEVTLPNGEVLERTVVLTRDEAGNVVEEEVESAGGSAGGSAGG [r11_709_JUSTAS]”, the “folding stability dG unfold” value in data set [1] was 0.224 ± 0.03 kcal/mol; in data set [2] it was 1.29 ± 0.021 kcal/mol; in data set [3], 0.958 ± 0.053 kcal/mol.
In the case of “SAGGSAGGSAGSTTTTITDPANGEAYEVTSDPNGGATITNPNSSQVYYKNADTITSVGASSAGGSAGGSAGG [r17_476_JUSTAS]”, the “folding stability dG unfold” value in data set [1] is -0.263 ± 0.087 kcal/mol; in data set [2] it was -0.198 ± 0.49 kcal/mol; in data set [3] it was -0.0736 ± 0.19 kcal/mol.
In the case of “SAGGSAGGSAGSVLILVSREDLEALLEAGAEIVEVSDDYVLIRVEVPEVEVLDENGKRLDSAGGSAGGSAGG [r11_828_TrROS_Hall]”, the “folding stability dG unfold” value in data set [1] was found to be 1.9 ± 0.042 kcal/mol; in data set [2], 2.43 ± 0.056 kcal/mol; in data set [3], 2.21 ± 0.077 kcal/mol.
The like results for “SAGGSAGGSAGSVTVSSTTTTLTDSMRVITETFTSPDLVKVTFVPTSNPEDVTVTTLPSASAGGSAGGSAGG [r11_1046_JUSTAS]” were, in that order, -0.417 ± 0.093 kcal/mol, 1.04 ± 0.026 kcal/mol and 0.643 ± 0.092 kcal/mol.
Taken in the same sequence, the figures for “SAGGSAGGSAGTETKVLFIDENFESVEEAFQALRDLLPDNYKIEPLGVFPAKNKVVVLVTNPSAGGSAGGSA [r18_429_TrMRF]” were 0.646 ± 0.056 kcal/mol, 0.189 ± 0.27 kcal/mol and 0.589 ± 0.15 kcal/mol.
Taken in the same sequence, the figures for “SAGGSAGGSAGTIKVNGKTVTITKNKKTGKYTITVTLKNGEKKTFVFPSKEDVEEALKALSAGGSAGGSAGG [r11_238_TrROS_Hall]” were 3.27 ± 0.11 kcal/mol, 4.14 ± 0.08 kcal/mol and 3.94 ± 0.13 kcal/mol.
As for “SAGGSAGGSAGTITILFKDPEDAIDRIKEFAQKEGYKVKIDEIEYTPNGYVWIDIDIEPPSAGGSAGGSAGG [r11_304_TrROS]”, the “folding stability dG unfold” value in data set [1] was 1.06 ± 0.045 kcal/mol; in data set [2] it was 1.49 ± 0.11 kcal/mol; in data set [3] it was 1.35 ± 0.099 kcal/mol.
In the case of “SAGGSAGGSAGTITINGKPITIEKLDNGYYKVKVNGKWYEIKPGEKIELPKGATVSIEKVSAGGSAGGSAGG [r11_147_TrROS_Hall]”, the “folding stability dG unfold” value in data set [1] turned out to be 1.21 ± 0.069 kcal/mol; in data set [2], 2.6 ± 0.035 kcal/mol; in data set [3], 2.27 ± 0.14 kcal/mol.
For “SAGGSAGGSAGTKTITLPNGLTLTIKPDEPVTITLVKVDPETNEIVEEKTITVYVKEDDLSAGGSAGGSAGG [r11_497_TrROS_Hall]”, the results for the “folding stability dG unfold” value in data set [1], in data set [2] and in data set [3] were 1.08 ± 0.021 kcal/mol, 1.19 ± 0.061 kcal/mol and 1.2 ± 0.076 kcal/mol, respectively.
Turning to “SAGGSAGGSAGTLEALKNLKPGETVTLRVELRVERRYLDPNGKEHTEEVSTVTLELTLKPSAGGSAGGSAGG [r11_36_TrROS_Hall]”, the “folding stability dG unfold” value was 3.22 ± 0.11 kcal/mol in data set [1], 3.62 ± 0.054 kcal/mol in data set [2] and 3.49 ± 0.11 kcal/mol in data set [3].
Taken in the same sequence, the figures for “SAGGSAGGSAGTLKLTLEVTVTRLYRLPDGSGSLVAETVRVRVEVELEVDELDEDGRLLLSAGGSAGGSAGG [r11_558_TrROS_Hall]” were 3.08 ± 0.14 kcal/mol, 3.269 ± 0.024 kcal/mol and 3.18 ± 0.07 kcal/mol.
In the case of “SAGGSAGGSAGTVEEIAKYFAGEFPNYKVNIDVEWEGGKITSVDIEWEVVPPPPPESPGKSAGGSAGGSAGG [r11_197_TrROS]”, the “folding stability dG unfold” value turned out to be 1.16 ± 0.12 kcal/mol in data set [1], 0.309 ± 0.18 kcal/mol in data set [2] and 0.834 ± 0.22 kcal/mol in data set [3].
The like results for “SAGGSAGGSAGTVIRVRDKNGKIVEISLEEAAELLGIPPSELTLEDIVKAFAEKVDSIEILSSAGGSAGGSA [r18_403_TrMRF]” were, in that order, 3.6 ± 0.1 kcal/mol, 2.3 ± 0.038 kcal/mol and 2.91 ± 0.064 kcal/mol.
As to “SAGGSAGGSAGVITIPLDDINDLPPGFKVKPNNNSMMIEDGDNPIHIPPGEPVQIEPPDESAGGSAGGSAGG [r17_91_TrROS]”, the “folding stability dG unfold” value amounted to 0.65 ± 0.1 kcal/mol in data set [1], 0.346 ± 0.097 kcal/mol in data set [2] and 0.466 ± 0.22 kcal/mol in data set [3].
As to “SAGGSAGGSAGVSFVVDALFVDPNTNEVYHGHIEFYDDGTAKITLTNQNGKTKTFTFPVLFSAGGSAGGSAG [r3_61_TrMRF]”, the figures for the “folding stability dG unfold” value in data set [1], in data set [2] and in data set [3] were 2.73 ± 0.14 kcal/mol, 3.25 ± 0.049 kcal/mol and 3.01 ± 0.19 kcal/mol, respectively.
In the case of “SAGGSAGGSAGVVDEVKAALEPQGLKVLSVTPGSSSVTVTVLDPKKGETTTFTIPLDDPLSAGGSAGGSAGG [r11_428_JUSTAS]”, the entries for the “folding stability dG unfold” value in data set [1], in data set [2] and in data set [3] were 1.02 ± 0.029 kcal/mol, 1.28 ± 0.088 kcal/mol and 1.22 ± 0.057 kcal/mol, respectively.
The like results for “SAGGSAGGSAGVVEPTVVSRAPDGTLTVVLNLPDGSTRTVTDPTNVTIGDRPINALTNASSAGGSAGGSAGG [r11_1017_JUSTAS]” were, in that order, -0.956 ± 0.45 kcal/mol, 0.508 ± 0.042 kcal/mol and 0.222 ± 0.14 kcal/mol.
Taken in the same sequence, the figures for “SAGGSAGGSAGVVLTEDGYAVATVTVTTTTVEYDEETGEWKETTTTTTETLTVVVPVGATSAGGSAGGSAGG [r17_527_TrROS_Hall]” were 2.66 ± 0.2 kcal/mol, 1.6 ± 0.14 kcal/mol and 2.22 ± 0.098 kcal/mol.
“SAGGSAGGSAGVVRTDDGREVTVRRTVRVEVRLEITITASEEDREKAAAALERLLRELGLSAGGSAGGSAGG [r17_501_TrROS_Hall]”: the “folding stability dG unfold” value came out at 2.68 ± 0.24 kcal/mol in data set [1], 3.04 ± 0.086 kcal/mol in data set [2] and 2.86 ± 0.16 kcal/mol in data set [3].

(Values after the supplement of paper PMC12764529.)
